Experimental findings from patent publication EP3211087A1 (National University Corporation Nagoya University, dated 2017) are described below.

The chains are these.
B1: Cavin-2 (other, human, UniProt O95810 2-425, looked up)
chain: GEDAAQAEKFQHPGSDMRQEKPSSPSPMPSSTPSPSLNLGNTEEAIRDNSQVNAVTVLTLLDKLVNMLDAVQENQHKMEQRQISLEGSVKGIQNDLTKLSKYQASTSNTVSKLLEKSRKVSAHTRAVKERMDRQCAQVKRLENNHAQLLRRNHFKVLIFQEENEIPASVFVKQPVSGAVEGKEELPDENKSLEETLHTVDLSSDDDLPHDEEALEDSAEEKVEESRAEKIKRSSLKKVDSLKKAFSRQNIEKKMNKLGTKIVSVERREKIKKSLTSNHQKISSGKSSPFKVSPLTFGRKKVREGESHAENETKSEDLPSSEQMPNDQEEESFAEGHSEASLASALVEGEIAEEAAEKATSRGSNSGMDSNIDLTIVEDEEEESVALEQAQKVRYEGSYALTSEEAERSDGDPVQPAVLQVHQTS
notes: whole, on cells; Detected with anti-Cavin-2 (Abcam) in IP-WB of cell extracts
B2: human Caveolin 1 (CAV1) (other, UniProt Q03135 2-178, looked up)
chain: SGGKYVDSEGHLYTVPIREQGNIYKPNNKAMADELSEKQVYDAHTKEIDLVNRDPKHLNDDVVKIDFEDVIAEPEGTHSFDGIWKASFTTFTVTKYWFYRLLSALFGIPMALIWGIYFAILSFLHIWAVVPCIKSFLIEIQCISRVYSIYVHTVCDPLFEAVGKIFSNVRINLQKEI
notes: whole, on cells; Endogenous protein in cell extracts, or full-length cDNA expressed from pCMV-puro in COS-7 cells for IP-WB; also called CAV1-WT; pCMVpuro-CAV1
B3: human Cavin-1 (other, UniProt Q6NZI2 1-390, looked up)
chain: MEDPTLYIVERPLPGYPDAEAPEPSSAGAQAAEEPSGAGSEELIKSDQVNGVLVLSLLDKIIGAVDQIQLTQAQLEERQAEMEGAVQSIQGELSKLGKAHATTSNTVSKLLEKVRKVSVNVKTVRGSLERQAGQIKKLEVNEAELLRRRNFKVMIYQDEVKLPAKLSISKSLKESEALPEKEGEELGEGERPEEDAAALELSSDEAVEVEEVIEESRAERIKRSGLRRVDDFKKAFSKEKMEKTKVRTRENLEKTRLKTKENLEKTRHTLEKRMNKLGTRLVPAERREKLKTSRDKLRKSFTPDHVVYARSKTAVYKVPPFTFHVKKIREGQVEVLKATEMVEVGADDDEGGAERGEAGDLRRGSSPDVHALLEITEESDAVLVDKSDSD
notes: whole, on cells; Endogenous protein in cell extracts, or full-length cDNA expressed from pCMV-puro in COS-7 cells for IP-WB; also called Cavin-1-WT; pCMVpuro-Cavin-1

For experiment [1], the target named is T1, human ROR1 (receptor tyrosine kinase-like orphan receptor 1) (human, UniProt Q01973 30-937).
T1 construct: whole, on cells; also called ROR1-WT; endogenous ROR1
T1 sequence (Q01973 30-937): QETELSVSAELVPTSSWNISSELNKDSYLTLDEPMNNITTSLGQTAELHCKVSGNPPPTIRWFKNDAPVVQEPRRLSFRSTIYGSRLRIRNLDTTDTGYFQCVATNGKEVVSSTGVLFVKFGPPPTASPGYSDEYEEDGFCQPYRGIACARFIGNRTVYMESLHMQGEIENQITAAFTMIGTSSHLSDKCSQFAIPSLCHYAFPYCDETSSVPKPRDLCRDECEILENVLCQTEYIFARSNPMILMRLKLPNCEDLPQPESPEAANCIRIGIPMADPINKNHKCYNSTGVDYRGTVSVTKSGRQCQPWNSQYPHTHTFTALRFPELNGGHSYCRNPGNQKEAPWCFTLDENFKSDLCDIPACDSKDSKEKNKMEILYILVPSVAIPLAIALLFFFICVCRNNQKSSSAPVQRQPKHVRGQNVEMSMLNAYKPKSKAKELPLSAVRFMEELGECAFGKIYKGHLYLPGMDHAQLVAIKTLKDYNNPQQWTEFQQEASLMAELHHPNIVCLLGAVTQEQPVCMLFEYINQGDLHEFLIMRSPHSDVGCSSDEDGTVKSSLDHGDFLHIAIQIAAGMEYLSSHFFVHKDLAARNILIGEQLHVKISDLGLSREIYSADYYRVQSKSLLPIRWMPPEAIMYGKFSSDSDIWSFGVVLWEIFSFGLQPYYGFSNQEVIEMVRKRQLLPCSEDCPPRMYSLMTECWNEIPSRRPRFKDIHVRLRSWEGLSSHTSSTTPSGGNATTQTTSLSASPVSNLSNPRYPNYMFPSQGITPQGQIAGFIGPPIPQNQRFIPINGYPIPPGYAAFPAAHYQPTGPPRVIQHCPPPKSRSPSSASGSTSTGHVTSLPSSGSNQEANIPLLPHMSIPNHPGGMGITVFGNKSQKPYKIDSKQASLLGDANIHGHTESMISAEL
In words: IP-WB of octyl glucoside cell extracts, NCI-H1975 and SK-LU-1.

Experiment [2] addresses T1, human ROR1 (receptor tyrosine …). The experiment in a line: legend of FIGS. 4(3) and (4): IP-WB, NCI-H1975 and SK-LU-1.
The experiment “human Cavin-1” concerns the target B3. In words: legend of FIG. 4(6): IP-WB.

Consider B1, for which the binding result in experiment [1] is recorded as “no binding”. As to B2, the binding result (in experiment [2]; with human Cavin-1) was “binds” each time. Take B3: the binding result in experiment [1] is recorded as “binds”.
